Data: IntAct's records for PubMed 24291789

B1: Cohesin subunit psc3 (Schizosaccharomyces pombe (strain ATCC 38366 / 972)), O13816 (parent)
chain: MSESVTTGSDDDGGDRESSPVMLSQSFDPMSSSSNSSSEENSDDDYEKTISSKKRHPRPNSKGVNVKRSRRNAIVEEDPQEEIFNNLFAFLLDQKVDTMDIAVSWFADYAKDNQSALANLINFILKCCGCNRAINVFDVQDQDSASATLSQIQLSVERTSTRDYPLNSKNLKFRNFRKRLTGLLSNFVSQLSIRNYLYNSTVFEDIMSWVVAMSSSTMRPIRHTATVFCLNIMTFLCEKSKELLNEHAIATKQLEKEEKRSRVNRNRINELNNSLGEIVKQQDTLTTYLNDYFDSVFVHRYRDVEPKIRVDCLQELGVWINTVPSIFFSGSYLRYLGWMLSDINTTVRLTVVKVLRKFFETDSFIGGLRHFSSRFKERILEMSCVDADIGVRVASIRLCNAMRTCGFLENSEILKVLKLILDINPRVQREAVLFLCKVVDESVNEKIDLWGEEDYILKAFSQTSLTTFSVHWIKFSQMCKLLEEVRLSYQSSFDYDTLLRIFQKNGNFITPITQALLNACEIDSIYQSWEDISNFVLFDNYTSTLKDPIDSILSFCKLNDFQESILLQLLSASIQTVCNNNFITPKTVHNKQAAETTNDQNKDKDLLYLNLLPYINSITERNSASPTLLHDSLRLLFSMDLTEMTDPQLSRHFELLINNLKKFFLTNNDLQIIQGCTILFLRLDSIPALKEDLKLLVTDICDQTVTEFLKNFGSFNIQDAVITKDEFVIFEACLTRIEGCTSLKDFSDYPEFDIIYERLVSLLSRVPNSYEDTLKFSAINTLQSLLFWFFLRKDNPADEEKKKDDETKVFNCLINIMNNDSSKILQLQAARTFLETVIMKEGVKASHYNDDNRVSEEHNFLKPQFLDALLKILEGWLYTYAKVGQFPFKRLTQASSPHTQISLDKNPLNRRLLEHVCCDLTSKLLIVVSLSNTITPEFSQQFCELRGHYGPKLSAIVDEFLN

Variants of: B1
Settings: with mis4_schpo mis4, Q09725
Chain of mis4_schpo mis4, Q09725 (Q09725 whole entry): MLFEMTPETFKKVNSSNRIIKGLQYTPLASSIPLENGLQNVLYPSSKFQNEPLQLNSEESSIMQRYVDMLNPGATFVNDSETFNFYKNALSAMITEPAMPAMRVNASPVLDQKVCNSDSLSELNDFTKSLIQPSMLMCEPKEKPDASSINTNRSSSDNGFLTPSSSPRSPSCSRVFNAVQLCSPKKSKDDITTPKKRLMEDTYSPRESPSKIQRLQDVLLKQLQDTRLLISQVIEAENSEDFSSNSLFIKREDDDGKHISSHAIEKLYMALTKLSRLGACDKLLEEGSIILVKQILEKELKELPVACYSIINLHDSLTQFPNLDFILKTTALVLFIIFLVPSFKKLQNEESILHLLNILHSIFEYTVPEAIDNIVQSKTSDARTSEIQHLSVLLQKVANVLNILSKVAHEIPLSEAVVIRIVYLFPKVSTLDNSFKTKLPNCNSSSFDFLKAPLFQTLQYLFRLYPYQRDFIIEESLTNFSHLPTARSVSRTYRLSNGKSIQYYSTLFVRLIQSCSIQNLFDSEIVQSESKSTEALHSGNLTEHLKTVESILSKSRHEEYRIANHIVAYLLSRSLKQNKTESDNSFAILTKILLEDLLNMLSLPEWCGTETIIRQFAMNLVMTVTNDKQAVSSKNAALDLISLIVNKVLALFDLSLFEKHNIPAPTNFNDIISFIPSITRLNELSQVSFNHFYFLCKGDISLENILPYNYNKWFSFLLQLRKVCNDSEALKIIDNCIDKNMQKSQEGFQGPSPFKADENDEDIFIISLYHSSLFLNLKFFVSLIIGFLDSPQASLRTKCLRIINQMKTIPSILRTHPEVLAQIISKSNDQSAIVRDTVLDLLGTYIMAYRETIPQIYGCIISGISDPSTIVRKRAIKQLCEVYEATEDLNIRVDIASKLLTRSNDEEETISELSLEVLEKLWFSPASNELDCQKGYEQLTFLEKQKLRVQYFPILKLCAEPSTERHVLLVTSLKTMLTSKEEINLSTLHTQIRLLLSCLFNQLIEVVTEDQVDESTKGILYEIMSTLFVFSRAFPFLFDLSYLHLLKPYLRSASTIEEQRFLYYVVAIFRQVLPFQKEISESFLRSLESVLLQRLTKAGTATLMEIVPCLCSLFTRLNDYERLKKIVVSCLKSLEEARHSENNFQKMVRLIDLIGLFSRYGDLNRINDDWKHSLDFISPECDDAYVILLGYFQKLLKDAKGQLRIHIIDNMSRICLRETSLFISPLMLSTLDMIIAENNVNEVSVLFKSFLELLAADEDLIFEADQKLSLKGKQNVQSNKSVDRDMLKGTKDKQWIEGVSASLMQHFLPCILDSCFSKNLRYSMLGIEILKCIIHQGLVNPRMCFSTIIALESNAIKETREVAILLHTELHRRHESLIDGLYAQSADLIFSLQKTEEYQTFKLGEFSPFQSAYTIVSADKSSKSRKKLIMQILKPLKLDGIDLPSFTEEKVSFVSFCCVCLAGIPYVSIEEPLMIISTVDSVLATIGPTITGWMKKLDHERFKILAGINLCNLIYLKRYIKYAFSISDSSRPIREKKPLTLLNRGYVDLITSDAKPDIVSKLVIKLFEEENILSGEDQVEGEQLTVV

effect of a mutation on the interaction | Variant
decreasing interaction strength | R300G
decreasing interaction strength | P306L
